Laboratory results as given in patent US20240036027A1.

What was measured:
[1] = target: OmpG^Q224-FLAG (Escherichia coli) (UniProt P76045); experiment: single-channel current recording, 30 nM antibody, 50 mV, 30 pA pores
[2] = target: OmpG^Q224-FLAG (Escherichia coli) (UniProt P76045); experiment: single-channel current recording, 30 nM FG4R
[3] = target: OmpG^L3-FLAG (Escherichia coli) (UniProt P76045); experiment: single-channel current recording, N=3 pores, n=9 binding events

| Substance | reduction in current in the bound state [1] | reduction of current flow in the bound state [2] | reduction in pore conductance in the bound state [3] |
| --- | --- | --- | --- |
| FLAG tag monoclonal antibody OTI4C5 (OriGene Technologies) | 20 pA | – | – |
| Monoclonal mouse anti-FLAG antibody FG4R [RRID AB_1957945] | – | 10% | 5.02% |
